How the values were obtained:
MxPPO [1] = experiment: Herbicide tolerance test of MxPPO wild type and variants in PPO-deficient E. coli BT3(ΔPPO), growth on herbicide-containing LB agar; assay type: cell-based, Myxococcus xanthus; details: relative to MxPPO WT, light; for Herbicide tolerance, tiafenacil: 2000 μM (FIG. 14); for Herbicide tolerance, flumioxazin: up to 400 μM (FIGS. 15-17); for Herbicide tolerance, sulfentrazone: up to 1000 μM (FIGS. 18-20)
Method: Then, the extent of tolerance was evaluated.

MxPPO [2] = experiment: PPO enzyme activity of purified MBP-fused MxPPO wild type and variants; assay type: biochemical, Myxococcus xanthus; details: PPO enzyme activity of purified MxPPO protein, relative to wild type

Molecule	Herbicide tolerance, tiafenacil (MxPPO [1])	Herbicide tolerance, flumioxazin (MxPPO [1])	Herbicide tolerance, sulfentrazone (MxPPO [1])	Activity (%) (MxPPO [2])
I311M + M365V: MxPPO (SEQ ID NO: 3) variant (protein, Synthetic (Protoporphyrinogen IX oxidase (MxPPO) of Myxococcus xanthus)) MHHMPRTTGMNVAVVGGGISGLAVAHHLRSRGTDAVLLESSARLGGAVGTHALAGYLVEQGPNSFLDREPATRALAAALNLEGRIRAADPAAKRRYVYTRGRLRSVPASPPAFLASDILPLGARLRVAGELFSRRAPEGVDESLAAFGRRHLGHRATQVLLDAVQTGIYAGDVEQLSVAATFPMLVKMEREHRSLILGAIRAQKAQRQAALPAGTAPKLSGALSTFDGGLQVLIDALAASLGDAAHVGARVEGLAREDGGWRLIIEEHGRRAELSVAQVVLAAPAHATAKLLRPLDDALAALVAGIAYAPMAVVHLGFDAGTLPAPDGFGFLVPAEEQRRMLGAIHASTTFPFRAEGGRVLYSCVVGGARQPGLVEQDEDALAALAREELKALAGVTARPSFTRVFRWPLGIPQYNLGHLERVAAIDAALQRLPGLHLIGNAYKGVGLNDCIRNAAQLADALVAGNTSHAP	+ (1-9 fold higher tolerance)	++ (10-99 fold higher tolerance)	+ (1-9 fold higher tolerance)	71
R95A + L332T + M365I: MxPPO (SEQ ID NO: 3) variant (protein, Synthetic (Protoporphyrinogen IX oxidase (MxPPO) of Myxococcus xanthus)) MHHMPRTTGMNVAVVGGGISGLAVAHHLRSRGTDAVLLESSARLGGAVGTHALAGYLVEQGPNSFLDREPATRALAAALNLEGRIRAADPAAKRAYVYTRGRLRSVPASPPAFLASDILPLGARLRVAGELFSRRAPEGVDESLAAFGRRHLGHRATQVLLDAVQTGIYAGDVEQLSVAATFPMLVKMEREHRSLILGAIRAQKAQRQAALPAGTAPKLSGALSTFDGGLQVLIDALAASLGDAAHVGARVEGLAREDGGWRLIIEEHGRRAELSVAQVVLAAPAHATAKLLRPLDDALAALVAGIAYAPIAVVHLGFDAGTLPAPDGFGFTVPAEEQRRMLGAIHASTTFPFRAEGGRVLYSCIVGGARQPGLVEQDEDALAALAREELKALAGVTARPSFTRVFRWPLGIPQYNLGHLERVAAIDAALQRLPGLHLIGNAYKGVGLNDCIRNAAQLADALVAGNTSHAP	–	+ (1-9 fold higher tolerance)	+ (1-9 fold higher tolerance)	38
R95A + I311M + M365V: MxPPO (SEQ ID NO: 3) variant (protein, Synthetic (Protoporphyrinogen IX oxidase (MxPPO) of Myxococcus xanthus)) MHHMPRTTGMNVAVVGGGISGLAVAHHLRSRGTDAVLLESSARLGGAVGTHALAGYLVEQGPNSFLDREPATRALAAALNLEGRIRAADPAAKRAYVYTRGRLRSVPASPPAFLASDILPLGARLRVAGELFSRRAPEGVDESLAAFGRRHLGHRATQVLLDAVQTGIYAGDVEQLSVAATFPMLVKMEREHRSLILGAIRAQKAQRQAALPAGTAPKLSGALSTFDGGLQVLIDALAASLGDAAHVGARVEGLAREDGGWRLIIEEHGRRAELSVAQVVLAAPAHATAKLLRPLDDALAALVAGIAYAPMAVVHLGFDAGTLPAPDGFGFLVPAEEQRRMLGAIHASTTFPFRAEGGRVLYSCVVGGARQPGLVEQDEDALAALAREELKALAGVTARPSFTRVFRWPLGIPQYNLGHLERVAAIDAALQRLPGLHLIGNAYKGVGLNDCIRNAAQLADALVAGNTSHAP	–	++ (10-99 fold higher tolerance)	+ (1-9 fold higher tolerance)	37
L332T + M365I: MxPPO (SEQ ID NO: 3) variant (protein, Synthetic (Protoporphyrinogen IX oxidase (MxPPO) of Myxococcus xanthus)) MHHMPRTTGMNVAVVGGGISGLAVAHHLRSRGTDAVLLESSARLGGAVGTHALAGYLVEQGPNSFLDREPATRALAAALNLEGRIRAADPAAKRRYVYTRGRLRSVPASPPAFLASDILPLGARLRVAGELFSRRAPEGVDESLAAFGRRHLGHRATQVLLDAVQTGIYAGDVEQLSVAATFPMLVKMEREHRSLILGAIRAQKAQRQAALPAGTAPKLSGALSTFDGGLQVLIDALAASLGDAAHVGARVEGLAREDGGWRLIIEEHGRRAELSVAQVVLAAPAHATAKLLRPLDDALAALVAGIAYAPIAVVHLGFDAGTLPAPDGFGFTVPAEEQRRMLGAIHASTTFPFRAEGGRVLYSCIVGGARQPGLVEQDEDALAALAREELKALAGVTARPSFTRVFRWPLGIPQYNLGHLERVAAIDAALQRLPGLHLIGNAYKGVGLNDCIRNAAQLADALVAGNTSHAP	–	+ (1-9 fold higher tolerance)	+ (1-9 fold higher tolerance)	80
R95A + I168C + M365I: MxPPO (SEQ ID NO: 3) variant (protein, Synthetic (Protoporphyrinogen IX oxidase (MxPPO) of Myxococcus xanthus)) MHHMPRTTGMNVAVVGGGISGLAVAHHLRSRGTDAVLLESSARLGGAVGTHALAGYLVEQGPNSFLDREPATRALAAALNLEGRIRAADPAAKRAYVYTRGRLRSVPASPPAFLASDILPLGARLRVAGELFSRRAPEGVDESLAAFGRRHLGHRATQVLLDAVQTGCYAGDVEQLSVAATFPMLVKMEREHRSLILGAIRAQKAQRQAALPAGTAPKLSGALSTFDGGLQVLIDALAASLGDAAHVGARVEGLAREDGGWRLIIEEHGRRAELSVAQVVLAAPAHATAKLLRPLDDALAALVAGIAYAPIAVVHLGFDAGTLPAPDGFGFLVPAEEQRRMLGAIHASTTFPFRAEGGRVLYSCIVGGARQPGLVEQDEDALAALAREELKALAGVTARPSFTRVFRWPLGIPQYNLGHLERVAAIDAALQRLPGLHLIGNAYKGVGLNDCIRNAAQLADALVAGNTSHAP	–	+ (1-9 fold higher tolerance)	+ (1-9 fold higher tolerance)	38
I168C + A170C + M365V: MxPPO (SEQ ID NO: 3) variant (protein, Synthetic (Protoporphyrinogen IX oxidase (MxPPO) of Myxococcus xanthus)) MHHMPRTTGMNVAVVGGGISGLAVAHHLRSRGTDAVLLESSARLGGAVGTHALAGYLVEQGPNSFLDREPATRALAAALNLEGRIRAADPAAKRRYVYTRGRLRSVPASPPAFLASDILPLGARLRVAGELFSRRAPEGVDESLAAFGRRHLGHRATQVLLDAVQTGCYCGDVEQLSVAATFPMLVKMEREHRSLILGAIRAQKAQRQAALPAGTAPKLSGALSTFDGGLQVLIDALAASLGDAAHVGARVEGLAREDGGWRLIIEEHGRRAELSVAQVVLAAPAHATAKLLRPLDDALAALVAGIAYAPIAVVHLGFDAGTLPAPDGFGFLVPAEEQRRMLGAIHASTTFPFRAEGGRVLYSCVVGGARQPGLVEQDEDALAALAREELKALAGVTARPSFTRVFRWPLGIPQYNLGHLERVAAIDAALQRLPGLHLIGNAYKGVGLNDCIRNAAQLADALVAGNTSHAP	–	++ (10-99 fold higher tolerance)	++ (10-99 fold higher tolerance)	45
R95A + A170C + M365I: MxPPO (SEQ ID NO: 3) variant (protein, Synthetic (Protoporphyrinogen IX oxidase (MxPPO) of Myxococcus xanthus)) MHHMPRTTGMNVAVVGGGISGLAVAHHLRSRGTDAVLLESSARLGGAVGTHALAGYLVEQGPNSFLDREPATRALAAALNLEGRIRAADPAAKRAYVYTRGRLRSVPASPPAFLASDILPLGARLRVAGELFSRRAPEGVDESLAAFGRRHLGHRATQVLLDAVQTGIYCGDVEQLSVAATFPMLVKMEREHRSLILGAIRAQKAQRQAALPAGTAPKLSGALSTFDGGLQVLIDALAASLGDAAHVGARVEGLAREDGGWRLIIEEHGRRAELSVAQVVLAAPAHATAKLLRPLDDALAALVAGIAYAPIAVVHLGFDAGTLPAPDGFGFLVPAEEQRRMLGAIHASTTFPFRAEGGRVLYSCIVGGARQPGLVEQDEDALAALAREELKALAGVTARPSFTRVFRWPLGIPQYNLGHLERVAAIDAALQRLPGLHLIGNAYKGVGLNDCIRNAAQLADALVAGNTSHAP	–	+ (1-9 fold higher tolerance)	+ (1-9 fold higher tolerance)	41
L332T + M365V: MxPPO (SEQ ID NO: 3) variant (protein, Synthetic (Protoporphyrinogen IX oxidase (MxPPO) of Myxococcus xanthus)) MHHMPRTTGMNVAVVGGGISGLAVAHHLRSRGTDAVLLESSARLGGAVGTHALAGYLVEQGPNSFLDREPATRALAAALNLEGRIRAADPAAKRRYVYTRGRLRSVPASPPAFLASDILPLGARLRVAGELFSRRAPEGVDESLAAFGRRHLGHRATQVLLDAVQTGIYAGDVEQLSVAATFPMLVKMEREHRSLILGAIRAQKAQRQAALPAGTAPKLSGALSTFDGGLQVLIDALAASLGDAAHVGARVEGLAREDGGWRLIIEEHGRRAELSVAQVVLAAPAHATAKLLRPLDDALAALVAGIAYAPIAVVHLGFDAGTLPAPDGFGFTVPAEEQRRMLGAIHASTTFPFRAEGGRVLYSCVVGGARQPGLVEQDEDALAALAREELKALAGVTARPSFTRVFRWPLGIPQYNLGHLERVAAIDAALQRLPGLHLIGNAYKGVGLNDCIRNAAQLADALVAGNTSHAP	+ (1-9 fold higher tolerance)	+ (1-9 fold higher tolerance)	+ (1-9 fold higher tolerance)	68

— US20220042033A1, “COMPOSITION AND METHOD FOR CONFERRING AND/OR ENHANCING TOLERANCE AGAINST HERBICIDES BY USING VARIANTS OF PPO” (FarmHannong Co., Ltd., priority 2017, published 2022)
